From patent EP4692114A1, “CALCITONIN ANALOGUE, AND DERIVATIVE THEREOF AND USE THEREOF” (Hangzhou Sciwind Biosciences Co., Ltd., priority 2023, dated 2024)
*1 amine or outer side, *2 acyl side, *3 side chain or, on linkers, in order; H or OH if unused. [ ]: non-standard residue; d: D form. The star is where a group is joined. C20 diacid = O=C(O)CCCCCCCCCCCCCCCCCCC(=O)*; C18 diacid = O=C(O)CCCCCCCCCCCCCCCCC(=O)*; γGlu = O=C(O)[C@H](CCC(=O)[*:2])N[*:1]; βAsp = O=C(O)[C@H](CC(=O)[*:2])N[*:1]; AEEA = NCCOCCOCC(=O)O

T1: human amylin receptor (AMY3) on CHO-K1/Gal5/AMY3 cells (human, UniProt P30988 25-474; O60896 24-148)
T1 sequence (looked up) 1: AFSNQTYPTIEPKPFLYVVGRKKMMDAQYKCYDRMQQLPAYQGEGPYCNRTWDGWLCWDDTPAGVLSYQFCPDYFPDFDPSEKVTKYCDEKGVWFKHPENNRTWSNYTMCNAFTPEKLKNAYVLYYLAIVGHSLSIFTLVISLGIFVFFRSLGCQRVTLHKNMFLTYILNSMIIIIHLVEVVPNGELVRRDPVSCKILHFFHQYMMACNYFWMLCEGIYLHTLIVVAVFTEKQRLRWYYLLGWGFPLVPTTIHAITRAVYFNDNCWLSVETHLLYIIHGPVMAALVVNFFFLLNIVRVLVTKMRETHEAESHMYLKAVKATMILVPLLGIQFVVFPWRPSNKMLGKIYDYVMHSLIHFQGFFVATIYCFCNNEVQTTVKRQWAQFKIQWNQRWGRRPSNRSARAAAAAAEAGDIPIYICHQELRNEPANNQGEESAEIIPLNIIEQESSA
T1 sequence (looked up) 2: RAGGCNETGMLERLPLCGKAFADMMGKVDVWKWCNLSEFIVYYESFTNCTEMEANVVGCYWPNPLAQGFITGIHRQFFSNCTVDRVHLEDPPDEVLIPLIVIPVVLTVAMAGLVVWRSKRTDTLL


Biological target: T1, human amylin receptor (AMY3) on …
Assay: cell-based or functional assay

Row | EC50/nM, CRE-luciferase in amylin receptor/CRE-luc CHO cells [nM] | Binder
1 | 0.017 | {C20 diacid-γGlu}-ASQLSTAVLGRLSSELHRLQDYPRTDVGSGSP-NH2 (SMILES CC(C)C[C@H](NC(=O)[C@H](CCCNC(=N)N)NC(=O)CNC(=O)[C@H](CC(C)C)NC(=O)[C@@H](NC(=O)[C@H](C)NC(=O)[C@@H](NC(=O)[C@H](CO)NC(=O)[C@H](CC(C)C)NC(=O)[C@H](CCC(N)=O)NC(=O)[C@H](CO)NC(=O)[C@H](C)NC(=O)CC[C@H](NC(=O)CCCCCCCCCCCCCCCCCCC(=O)O)C(=O)O)[C@@H](C)O)C(C)C)C(=O)N[C@@H](CO)C(=O)N[C@@H](CO)C(=O)N[C@@H](CCC(=O)O)C(=O)N[C@@H](CC(C)C)C(=O)N[C@@H](Cc1c[nH]cn1)C(=O)N[C@@H](CCCNC(=N)N)C(=O)N[C@@H](CC(C)C)C(=O)N[C@@H](CCC(N)=O)C(=O)N[C@@H](CC(=O)O)C(=O)N[C@@H](Cc1ccc(O)cc1)C(=O)N1CCC[C@H]1C(=O)N[C@@H](CCCNC(=N)N)C(=O)N[C@H](C(=O)N[C@@H](CC(=O)O)C(=O)N[C@H](C(=O)NCC(=O)N[C@@H](CO)C(=O)NCC(=O)N[C@@H](CO)C(=O)N1CCC[C@H]1C(N)=O)C(C)C)[C@@H](C)O) [calcitonin derivative M11]
2 | 0.016 | {C18 diacid}-EASQLSTAVLGRLSDELHRLQDYPRTDVGSGSP-NH2 (SMILES CC(C)C[C@H](NC(=O)[C@H](CCCNC(=N)N)NC(=O)CNC(=O)[C@H](CC(C)C)NC(=O)[C@@H](NC(=O)[C@H](C)NC(=O)[C@@H](NC(=O)[C@H](CO)NC(=O)[C@H](CC(C)C)NC(=O)[C@H](CCC(N)=O)NC(=O)[C@H](CO)NC(=O)[C@H](C)NC(=O)[C@H](CCC(=O)O)NC(=O)CCCCCCCCCCCCCCCCC(=O)O)[C@@H](C)O)C(C)C)C(=O)N[C@@H](CO)C(=O)N[C@@H](CC(=O)O)C(=O)N[C@@H](CCC(=O)O)C(=O)N[C@@H](CC(C)C)C(=O)N[C@@H](Cc1c[nH]cn1)C(=O)N[C@@H](CCCNC(=N)N)C(=O)N[C@@H](CC(C)C)C(=O)N[C@@H](CCC(N)=O)C(=O)N[C@@H](CC(=O)O)C(=O)N[C@@H](Cc1ccc(O)cc1)C(=O)N1CCC[C@H]1C(=O)N[C@@H](CCCNC(=N)N)C(=O)N[C@H](C(=O)N[C@@H](CC(=O)O)C(=O)N[C@H](C(=O)NCC(=O)N[C@@H](CO)C(=O)NCC(=O)N[C@@H](CO)C(=O)N1CCC[C@H]1C(N)=O)C(C)C)[C@@H](C)O) [calcitonin derivative M42]
3 | 0.079 | {C20 diacid-γGlu}-VSQLSTVVLGRLSQELHRLQDYPRTDVGSGSP-NH2 (SMILES CC(C)C[C@H](NC(=O)[C@H](CCCNC(=N)N)NC(=O)CNC(=O)[C@H](CC(C)C)NC(=O)[C@@H](NC(=O)[C@@H](NC(=O)[C@@H](NC(=O)[C@H](CO)NC(=O)[C@H](CC(C)C)NC(=O)[C@H](CCC(N)=O)NC(=O)[C@H](CO)NC(=O)[C@@H](NC(=O)CC[C@H](NC(=O)CCCCCCCCCCCCCCCCCCC(=O)O)C(=O)O)C(C)C)[C@@H](C)O)C(C)C)C(C)C)C(=O)N[C@@H](CO)C(=O)N[C@@H](CCC(N)=O)C(=O)N[C@@H](CCC(=O)O)C(=O)N[C@@H](CC(C)C)C(=O)N[C@@H](Cc1c[nH]cn1)C(=O)N[C@@H](CCCNC(=N)N)C(=O)N[C@@H](CC(C)C)C(=O)N[C@@H](CCC(N)=O)C(=O)N[C@@H](CC(=O)O)C(=O)N[C@@H](Cc1ccc(O)cc1)C(=O)N1CCC[C@H]1C(=O)N[C@@H](CCCNC(=N)N)C(=O)N[C@H](C(=O)N[C@@H](CC(=O)O)C(=O)N[C@H](C(=O)NCC(=O)N[C@@H](CO)C(=O)NCC(=O)N[C@@H](CO)C(=O)N1CCC[C@H]1C(N)=O)C(C)C)[C@@H](C)O) [calcitonin derivative M26]
4 | 0.017 | {C20 diacid-βAsp}-ASQLSTAVLGRLSDELHRLQDYPRTDVGSGSP-NH2 (SMILES CC(C)C[C@H](NC(=O)[C@H](CCCNC(=N)N)NC(=O)CNC(=O)[C@H](CC(C)C)NC(=O)[C@@H](NC(=O)[C@H](C)NC(=O)[C@@H](NC(=O)[C@H](CO)NC(=O)[C@H](CC(C)C)NC(=O)[C@H](CCC(N)=O)NC(=O)[C@H](CO)NC(=O)[C@H](C)NC(=O)C[C@H](NC(=O)CCCCCCCCCCCCCCCCCCC(=O)O)C(=O)O)[C@@H](C)O)C(C)C)C(=O)N[C@@H](CO)C(=O)N[C@@H](CC(=O)O)C(=O)N[C@@H](CCC(=O)O)C(=O)N[C@@H](CC(C)C)C(=O)N[C@@H](Cc1c[nH]cn1)C(=O)N[C@@H](CCCNC(=N)N)C(=O)N[C@@H](CC(C)C)C(=O)N[C@@H](CCC(N)=O)C(=O)N[C@@H](CC(=O)O)C(=O)N[C@@H](Cc1ccc(O)cc1)C(=O)N1CCC[C@H]1C(=O)N[C@@H](CCCNC(=N)N)C(=O)N[C@H](C(=O)N[C@@H](CC(=O)O)C(=O)N[C@H](C(=O)NCC(=O)N[C@@H](CO)C(=O)NCC(=O)N[C@@H](CO)C(=O)N1CCC[C@H]1C(N)=O)C(C)C)[C@@H](C)O) [calcitonin derivative M43]
5 | 0.016 | {C20 diacid}-D[AEEA][AEEA]ASQLSTAVLGRLSEELHRLQDYPRTDVGSGSP-NH2 (SMILES CC(C)C[C@H](NC(=O)[C@H](CCCNC(=N)N)NC(=O)CNC(=O)[C@H](CC(C)C)NC(=O)[C@@H](NC(=O)[C@H](C)NC(=O)[C@@H](NC(=O)[C@H](CO)NC(=O)[C@H](CC(C)C)NC(=O)[C@H](CCC(N)=O)NC(=O)[C@H](CO)NC(=O)[C@H](C)NC(=O)COCCOCCNC(=O)COCCOCCNC(=O)[C@H](CC(=O)O)NC(=O)CCCCCCCCCCCCCCCCCCC(=O)O)[C@@H](C)O)C(C)C)C(=O)N[C@@H](CO)C(=O)N[C@@H](CCC(=O)O)C(=O)N[C@@H](CCC(=O)O)C(=O)N[C@@H](CC(C)C)C(=O)N[C@@H](Cc1c[nH]cn1)C(=O)N[C@@H](CCCNC(=N)N)C(=O)N[C@@H](CC(C)C)C(=O)N[C@@H](CCC(N)=O)C(=O)N[C@@H](CC(=O)O)C(=O)N[C@@H](Cc1ccc(O)cc1)C(=O)N1CCC[C@H]1C(=O)N[C@@H](CCCNC(=N)N)C(=O)N[C@H](C(=O)N[C@@H](CC(=O)O)C(=O)N[C@H](C(=O)NCC(=O)N[C@@H](CO)C(=O)NCC(=O)N[C@@H](CO)C(=O)N1CCC[C@H]1C(N)=O)C(C)C)[C@@H](C)O) [calcitonin derivative M60]
6 | 0.032 | {C20 diacid-γGlu}-KSQLSTEVLGRLSQELHRLQDYPRTDVGSGSP-NH2 (SMILES CC(C)C[C@H](NC(=O)[C@H](CCCNC(=N)N)NC(=O)CNC(=O)[C@H](CC(C)C)NC(=O)[C@@H](NC(=O)[C@H](CCC(=O)O)NC(=O)[C@@H](NC(=O)[C@H](CO)NC(=O)[C@H](CC(C)C)NC(=O)[C@H](CCC(N)=O)NC(=O)[C@H](CO)NC(=O)[C@H](CCCCN)NC(=O)CC[C@H](NC(=O)CCCCCCCCCCCCCCCCCCC(=O)O)C(=O)O)[C@@H](C)O)C(C)C)C(=O)N[C@@H](CO)C(=O)N[C@@H](CCC(N)=O)C(=O)N[C@@H](CCC(=O)O)C(=O)N[C@@H](CC(C)C)C(=O)N[C@@H](Cc1c[nH]cn1)C(=O)N[C@@H](CCCNC(=N)N)C(=O)N[C@@H](CC(C)C)C(=O)N[C@@H](CCC(N)=O)C(=O)N[C@@H](CC(=O)O)C(=O)N[C@@H](Cc1ccc(O)cc1)C(=O)N1CCC[C@H]1C(=O)N[C@@H](CCCNC(=N)N)C(=O)N[C@H](C(=O)N[C@@H](CC(=O)O)C(=O)N[C@H](C(=O)NCC(=O)N[C@@H](CO)C(=O)NCC(=O)N[C@@H](CO)C(=O)N1CCC[C@H]1C(N)=O)C(C)C)[C@@H](C)O) [calcitonin derivative M36]
7 | 0.017 | {C20 diacid-βAsp-AEEA-AEEA}-ASQLSTAVLGRLSEELHRLQDYPRTDVGSGSP-NH2 (SMILES CC(C)C[C@H](NC(=O)[C@H](CCCNC(=N)N)NC(=O)CNC(=O)[C@H](CC(C)C)NC(=O)[C@@H](NC(=O)[C@H](C)NC(=O)[C@@H](NC(=O)[C@H](CO)NC(=O)[C@H](CC(C)C)NC(=O)[C@H](CCC(N)=O)NC(=O)[C@H](CO)NC(=O)[C@H](C)NC(=O)COCCOCCNC(=O)COCCOCCNC(=O)C[C@H](NC(=O)CCCCCCCCCCCCCCCCCCC(=O)O)C(=O)O)[C@@H](C)O)C(C)C)C(=O)N[C@@H](CO)C(=O)N[C@@H](CCC(=O)O)C(=O)N[C@@H](CCC(=O)O)C(=O)N[C@@H](CC(C)C)C(=O)N[C@@H](Cc1c[nH]cn1)C(=O)N[C@@H](CCCNC(=N)N)C(=O)N[C@@H](CC(C)C)C(=O)N[C@@H](CCC(N)=O)C(=O)N[C@@H](CC(=O)O)C(=O)N[C@@H](Cc1ccc(O)cc1)C(=O)N1CCC[C@H]1C(=O)N[C@@H](CCCNC(=N)N)C(=O)N[C@H](C(=O)N[C@@H](CC(=O)O)C(=O)N[C@H](C(=O)NCC(=O)N[C@@H](CO)C(=O)NCC(=O)N[C@@H](CO)C(=O)N1CCC[C@H]1C(N)=O)C(C)C)[C@@H](C)O) [calcitonin derivative M59]
